Our source for the Kd values is paper PMC5452035, “Structural insight into recognition of phosphorylated threonine‐4 of RNA polymerase II C‐terminal domain by Rtt103p” (EMBO Reports, 2017).

Non-standard residues stand in square brackets, D forms with d. No end group written: not given here. pT = C[C@@H](OP(=O)(O)O)[C@H](N)C(=O)O; pS = N[C@@H](COP(=O)(O)O)C(=O)O; FAM = 5,6-carboxyfluorescein

What all share (test): fluorescence polarisation; fluorescence anisotropy; Rtt103p CID titrated into 10 nM N-terminally FAM-labelled CTD peptide; 10°C; 35 mM KH2PO4, 100 mM KCl, pH 6.8; 1:1 model with non-specific binding (DynaFit)
What all share (details): both partners purified

Test [1] has as its target T1, Rtt103p CID Arg108Asn mutant (yeast, UniProt Q05543 3-131, Arg108Asn).
T1 sequence (looked up): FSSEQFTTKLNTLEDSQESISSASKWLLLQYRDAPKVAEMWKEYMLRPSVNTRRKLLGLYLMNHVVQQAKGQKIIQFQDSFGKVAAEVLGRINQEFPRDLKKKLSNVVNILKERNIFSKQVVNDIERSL

For test [2], the target named is T2, Rtt103p CID Arg116Glu mutant (yeast, UniProt Q05543 3-131, Arg116Glu).
T2 sequence (looked up): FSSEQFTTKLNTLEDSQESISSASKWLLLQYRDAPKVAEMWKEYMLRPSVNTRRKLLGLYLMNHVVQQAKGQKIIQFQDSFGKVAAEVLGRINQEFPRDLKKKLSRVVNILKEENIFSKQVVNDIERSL

The target in test [3] is T3, Rtt103p CID Lys72Glu mutant (yeast, UniProt Q05543 3-131, Lys72Glu).
T3 sequence (looked up): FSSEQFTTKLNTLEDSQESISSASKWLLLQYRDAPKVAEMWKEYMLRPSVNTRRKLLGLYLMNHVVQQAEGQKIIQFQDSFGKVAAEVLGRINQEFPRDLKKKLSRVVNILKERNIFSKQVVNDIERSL

Test [4] has as its target T4, Rtt103p CTD-interacting domain (CID) (3-131-6xHIS) (yeast, UniProt Q05543 3-131).
T4 construct: Used unlabelled for fluorescence anisotropy and the 13C-HSQC titration, 15N-labelled for the TROSY titration and 15N,13C-labelled for the structure; also called Rtt103p CID; Rtt103 CID
T4 sequence (looked up): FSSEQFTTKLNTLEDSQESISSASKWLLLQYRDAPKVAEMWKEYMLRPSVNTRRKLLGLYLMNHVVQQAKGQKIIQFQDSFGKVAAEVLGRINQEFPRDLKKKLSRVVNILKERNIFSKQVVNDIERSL

B1: FAM-PSY(pS)PTSPSYSPTSPS (peptide)
peptide: {FAM}-PSY[pS]PTSPSYSPTSPS
notes: consensus heptad repeats (Tyr1-Ser2-Pro3-Thr4-Ser5-Pro6-Ser7) of the C-terminal domain of the largest subunit of RNA polymerase II (Rpb1); residues named by heptad position and repeat letter (P6a ... S7c); also called pSer2-CTD; FAM-pSer2 CTD; source: synthetic peptide (JPT, Berlin, or Clonestar, Brno)
In turn, B1 returned an equilibrium dissociation constant (Kd) in test [1] of 44 µM.

B2: FAM-PSYSP(pT)SPSYSPTSPS (peptide)
peptide: {FAM}-PSYSP[pT]SPSYSPTSPS
notes: consensus heptad repeats of the C-terminal domain of the largest subunit of RNA polymerase II (Rpb1); residues named by heptad position and repeat letter (P6a ... S7c); also called pThr4-CTD; FAM-pThr4 CTD; source: synthetic peptide (JPT, Berlin, or Clonestar, Brno)
Take B2: the figures for the Kd in test [1], in test [2] and in test [3] were 38 µM, 107 µM and 54 µM, respectively.

B3: FAM-PSYSP(pT)SPSYS (peptide)
peptide: {FAM}-PSYSP[pT]SPSYS
notes: consensus heptad repeats of the C-terminal domain of the largest subunit of RNA polymerase II (Rpb1); residues named by heptad position and repeat letter (P6a ... S2c); source: synthetic peptide (JPT, Berlin, or Clonestar, Brno)
On to B3, for which binding in test [4] was characterised by a dissociation constant (Kd) of 18 µM.

As a reminder, the Kd is a measure of binding affinity in units of concentration. Low readings indicate tighter binding, high ones weaker binding.
